Measurements as given in patent US20220412975.

T1: (HiLyteFluor-488)-DELSSMVLELRGLRT-K(QXL520)-E-NH2
T1 chain: DELSSMVLELRGLRTK

T2: TSP1-5 substrate, (HiLyteFluor-488)-SSMVLELRGLRT-K(QXL520)-NH2
T2 chain: SSMVLELRGLRTK

T3: TSP1-2 substrate, (HiLyteFluor-488)-SSMVLELRGLRTIVT-K(QXL520)-NH2
T3 chain: SSMVLELRGLRTIVTK

T4: TSP1-3 substrate, (HiLyteFluor-488)-KVTEENKELANELRR-K(QXL520)-NH2
T4 chain: KVTEENKELANELRRK

T5: COMP1 candidate peptide, (Donor) GMQQSVRTGLPS (K-Quencher)
T5 chain: GMQQSVRTGLPS

T6: COMP2 candidate peptide, (Donor) SPGFRC(Acm)EAC(Acm)PPGYS (K-Quencher)
T6 chain: SPGFRCEACPPGYS

T7: TSP1-1 substrate, (HiLyteFluor-488)-DELSSMVLELRGLRT-K(QXL520)-NH2
T7 chain: DELSSMVLELRGLRTK

T8: TSP1-4 substrate, (HiLyteFluor-488)-EENKELANELRRPPL-K(QXL520)-NH2
T8 chain: EENKELANELRRPPLK

B1: Rat/human ADAMTS-12 chimera, rPro-hCD (Rat 1-244/Human 241-543)-3xFLAG (protein)
chain: HGRQAQPWPVRFPDPKQEHFIKSLPEYHIVSPVQVDASGHFLSYGLHHPVTGSRKKRAAGGSGDQVYYRISHEEKNLFFNLTVNWEFLSNGYVVERRYGNLSHVKMAASSGQPCHLRGTVLQQGPTIRMGTAALSACQGLTGFFHLPHGDFFIEPVKKHPLTEEGYQPHVIYRRQSYRVPETKEPTCGLKDSLDNSVKQELQREKWERKNWPSRSLSRRSISKERWVETLVVADTKMIEYHGSENVESYILTIMNMVTGLFHNPSIGNAIHIVVVRLILLEEEEQGLKIVHHAEKTLSSFCKWQKSINPKSDLNPVHHDVAVLLTRKDICAGFNRPCETLGLSHLSGMCQPHRSCNINEDSGLPLAFTIAHELGHSFGIQHDGKENDCEPVGRHPYIMSRQLQYDPTPLTWSKCSEEYITRFLDRGWGFCLDDIPKKKGLKSKVIAPGVIYDVHHQCQLQYGPNATFCQEVENVCQTLWCSVKGFCRSKLDAAADGTQCGEKKWCMAGKCITVGKKPESIPGGGGSDYKDHDGDYKDHDIDYKDDDDK
B2: rADAMTS-7 (Rat 1-575)-Flag (protein)
chain: LPTEGRAGLDIVHPVRVDAGGSFLSYELWPRVLRKRDVSAAQASSAFYQLQYQGRELLFNLTTNPYLLAPGFVSEIRRRSNLSNVHIQTSVPTCHLLGDVQDPELEGGFAAISACDGLRGVFQLSNEDYFIEPLDEVPAQPGHAQPHMVYKHKRSGQQDDSRTSGTCGVQGSPELKHQREHWEQRQQKRRQQRSISKEKWVETLVVADSKMVEYHGQPQVESYVLTIMNMVAGLYHDPSIGNPIHITVVRLIILEDEEKDLKITHHADDTLKNFCRWQKNVNMKGDDHPQHHDTAILLTRKDLCATMNHPCETLGLSHVAGLCHPQLSCSVSEDTGLPLAFTVAHELGHSFGIQHDGTGNDCESIGKRPFIMSPQLLYDRGIPLTWSRCSREYITRFLDRGWGLCLDDRPSKGVINFPSVLPGVLYDVNHQCRLQYGPSSAYCEDVDNVCYTLWCSVGTTCHSKMDAAVDGTSCGKNKWCLNGECVPEGFQPETVDGGWSGWSAWSVCSRSCGVGVRSSERQCTQPVPKNKGKYCVGERKRYRLCNLQACPENLYFQGDYKDDDDK
B3: purified ADAMTS-7 E389Q catalytic inactive proteins (protein)
chain: SVSKEKWVETLVVADAKMVEYHGQPQVESYVLTIMNMVAGLFHDPSIGNPIHITIVRLVLLEDEEEDLKITHHADNTLKSFCKWQKSINMKGDAHPLHHDTAILLTRKDLCAAMNRPCETLGLSHVAGMCQPHRSCSINEDTGLPLAFTVAHQLGHSFGIQHDGSGNDCEPVGKRPFIMSPQLLYDAAPLTWSRCSRQYITRFLDRGWGLCLDDPPAKDIIDFPSVPPGVLYDVSHQCRLQYGAYSAFCEDMDNVCHTLWCSVGTTCHSKLDAAVDGTRCGENKWCLSGECVPVGFRPEAV

Columns and labels:
[1] = molecular target: T1, (HiLyteFluor-488)-DELSSMVLELRGLRT-K(QXL5 …)
[2] = molecular target: T2, TSP1-5 substrate, …
[3] = molecular target: T3, TSP1-2 substrate, …
[4] = molecular target: T4, TSP1-3 substrate, …
[5] = molecular target: T5, COMP1 candidate peptide, (Donor) …
[6] = molecular target: T6, COMP2 candidate peptide, (Donor) …
[7] = molecular target: T7, TSP1-1 substrate, …
[8] = molecular target: T8, TSP1-4 substrate, …

Protein | FRET peptide cleavage (increase of fluorescence intensity) [1] | FRET peptide cleavage (Relative Fluorescence Units over time) [2] | kcat [2] [s⁻¹] | FRET peptide cleavage (Relative Fluorescence Units over time) [3] | kcat [3] [s⁻¹] | kcat [4] [s⁻¹] | kcat [5] [s⁻¹] | kcat [6] [s⁻¹] | FRET peptide cleavage (Relative Fluorescence Units over time) [7] | kcat [7] [s⁻¹] | kcat [8] [s⁻¹] | FRET peptide cleavage (Relative Fluorescence Units over time) [4] | FRET peptide cleavage (Relative Fluorescence Units over time) [5] | FRET peptide cleavage (Relative Fluorescence Units over time) [6] | FRET peptide cleavage (Relative Fluorescence Units over time) [8]
B1 | It was surprisingly found that the same substrate could be used for the paralogs ADAMTS-7 and ADAMTS-12 |  |  |  |  |  |  |  |  |  |  |  |  |  | 
B2 |  | along with S2 and S5 peptides containing the E289⬇L290 cleavage site | 4.17e-05 | along with S2 and S5 peptides containing the E289⬇L290 cleavage site | 0.000128 | 2.33e-05 | 8.17e-06 | 8.33e-06 | Activity data from the rat ADAMTS-7 construct identified TSP1 S1 (SEQ ID NO: 4) as the substrate | 0.000167 | 4.33e-05 |  |  |  | 
B3 |  | Significant activity was not observed with substrates ... with incubation with purified ADAMTS-7 E389Q catalytic inactive proteins (data not shown |  | Significant activity was not observed with substrates ... with incubation with purified ADAMTS-7 E389Q catalytic inactive proteins (data not shown |  |  |  |  | Significant activity was not observed with substrates ... with incubation with purified ADAMTS-7 E389Q catalytic inactive proteins (data not shown |  |  | Significant activity was not observed with substrates ... with incubation with purified ADAMTS-7 E389Q catalytic inactive proteins (data not shown | Significant activity was not observed with substrates ... with incubation with purified ADAMTS-7 E389Q catalytic inactive proteins (data not shown | Significant activity was not observed with substrates ... with incubation with purified ADAMTS-7 E389Q catalytic inactive proteins (data not shown | Significant activity was not observed with substrates ... with incubation with purified ADAMTS-7 E389Q catalytic inactive proteins (data not shown
